The results in this text go back to the NTF2 design screens of Basanta et al. (2020).

The nature of this series: protease stability score; higher = more stable; yeast display proteolysis, trypsin and chymotrypsin.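 Note: log10 excess protease needed over predicted unfolded state with 0 meaning unfolded.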
Regarding “DEKELKKVLKTVVEYLKNGKAERVVKHLHDDVQVIYDDEEVHGADKFKEMVEKFQKLGYKVEYKEVHVEGDTATVKVQVDAGGETAEFHVTYQATGQKVDRMEVKYDERAQKVIKHG”, the protease stability score worked out at 1.14.
In turn, “DEENVDRAERLLDALRSGNPNTVRELMDKHVKIQIGDKHLHGREQADKKAEDDSKEINEEVKSVDVKATGNNVVIDMDVSATVDGRPVTFHRVLVIRMHNGKIQEIEIRMSEDDIRNYKK” displayed a protease stability score of 0.207.
The figure for “DDDKVTKVNELLENIKRGNEDDIRDLMDPNARVRIGDKDFHGREEVSDTWKQIRDTAHLSFTDVKNDDQGDHVYVRARFHQTHNGKPDTSVLHLEVTIRNGKIKEAQFHETP” is -0.159.
Sequence “DDQDRSHAVRLMRTGNFKEWADQADKDVSMQVGDKEVRGREQVIKMLKRLQEAADHVQVKSIHTQGEKMKADVTININGDQIRVIIEVVVEGDKLKELRIQFTSEHDEKIMHEQLQ” showed a protease stability score of 1.14.
The sequence “DEDDLRHVEKVLRENDEDTFAEMADEDVSADIGDKTLTGREEVKKMLQKLHKQADHVEIKSVTNRGDNVKVDMVMNYNGRNLRFSRSAEFTNGRIKHVSIRVTSEEDQDVLQRLLD” registered a protease stability score of 0.811.
For the sequence “DDQALRLLEEWLKAVQEGDQERAHEMADPNAKFEVGDKTINGMDDVNEQIRRDTESMRYQVQNVHSITRPNHVQADVQFENEHNGNPDTNRMVIQARATNGRIQSLRIQDKK”, the protease stability score is 0.058.
The figure for “DEEIVELIKKVLEAIEEGDETRLKKLFDPNAEFEIGDKKLHGMENAAKEWRKQRQQMEIRIKSVHFEVRGERVIVKFKVEYDHNGRPSTMTVHIVALAHNGKMTYFSQKVTQ” is 0.826; for “DHSDAEQVHRAIEENNFDELVDLADENVSVTIGDYTLHGREDFKHYQEVLKRQVDNVEFKTIDIQGDKIDRTVEATVNGRRYVARIVVKVKNGKIKSQKVHATDEKQNEQLRENLK” it is -0.043; for “DEERAAHNALRALEAMLTGDEKKADELADKDVRVNVGDRVYDGDEKMQKFVRELRKRYDHFHFRTYSHDGDKVKANVILNVNGRNVEIIFYLHAHNGKLKSVRVEVRNPELLKNLTS” it is 1.23.
The figure for “DEDQVRRVADKMFKMAVNGNKDEMKKLGKPNVEYKYLDKEYEGPDALKRVADKVKKIGAKVETQRREVKGDKVTAVFRYNDGDHTVQTTAEVQYEGDVVDRARVEITDEVKKVAHKG” is -0.093; for “DDDKDRKIAEEITKLLKHGNPDELARQADPNVRLEVGDHVYHGRHQMVEWVKHFWERADHLRIKDVTTRPGHVDLVATLRFDGKEAEFKVTFEFHNGRLKRVEVDPEFQKQIDS” it is 1.56.
In the case of “DEEELSQVVRKVIEALRTGDPDLFQKLADPNAKASVGDKSVHGKEEISSLQKEFSDRVDEIKFTHVSFENGHATIHMELNHNGRHDKVVVKIDVENGKIKHVQIEKS” it was 0.741.
“DERNKRRFDEFERARKTGDPDRMKELADPNAKLDVGNKTITGMDEIVRQLKHEQDKIEIDIKFDRITVQGNNLRAEYHEEYNVNGKPFHDKVVLEVQFDNGKIRELKLRVDPEKQDERRT”: the protease stability score was -0.003.
The sequence “DEDLMRKFVERVKTGDPKDLVDQLDENAHQVVGETRVHGRSQFEKLAKKLEEQVDHIKVRSVKQENGRVDMDVVVNVNGQNNRYVLRVDVHNGKIKHMEVEFTDEEDEKAYRKALG” gave a protease stability score of 0.095.
In the case of “DDRDIERMAKDYVRAIRTGDEEQIRRLMDKDVKYEIGDKTIHGRENWAKWVKNFRRHADHVRLKDMRVHGNKIDLNMEFQVNGEKKRQKYDIQVHNGRIKTVRIEDS” it was 1.47; in that of “DQEKLETLARQVFDAFREGDEETFRRLADPNVTAVYGDQKYRGRERVAKWLKDLANQIDHLQLNDVTIQGEKMHFDATVRINGKNRKLVMIVEAENGTLKRVVLSHG”, 0.166.
The figure for “DDQQARDIAKELVKALQTGDPERFVELADPNARVEIGDKTYHGHDRMSEMIKTWHRDVDHIRIQDYRAKGDKIEIQFVLDINGKQNRLVMVVQVSNGRITVVFVRSG” is 1.35; for “EEDLLEVMERLYQALRENDPKKAMENVDPNARFKVGNKEYRGREQQSKEDTKKRDKMRVDMRIESMEIHGETVHIDATVVNQVNGQPYRQKVIIRARLHNGQIQELEFQLDPSVQEKVRQ” it is 0.538; for “DHRVEEVFRRYLEAFQDNNPEKAMRLVDPNAKLSVGDTTLDGREDIKKFVRTRHNEQRVKYEIKQIEVDGDKIRVVADLKNQHNGTPDRDTVKMSASVRNGKIKDLKQTTDK” it is -0.132.
The figure for “EEDVSNQVRHAFDLHRSNNPENLEEMFDKNARIRIGDKTIHGREQYSETAEQEIREQKVEYKSIDVKAKNGRVHIRIDFVSNVNGRPKRDSMQQTYEIHNGRISHASIESDS” is -0.151.
Regarding “DEEDLNKFAEHVVHALQEGNPDQLMHLADENVKMTVGDTSVEGKDQVSEYWTEMKERIDHFSYTSVDVRGNTIEIRFTADVDGRELRQVLIIEVRNGRAKSISIEDG”, the protease stability score amounted to 1.88.
Take “DEEDVDRFAKTFAEIFQSGNPENIREMMDPNARLHVGERTYHGRETIVQYLKRLRRDVDSIHLVSITNHGESIVIKVSLDVNGQHVVVHINVHFQNGRIKSMSMTYRDEEDRKKYEG”: the protease stability score amounted to 2.
As to “DEEALKNWEHQLRAHEQGDENRLKELADPNVRYRVGNHEIRGMQQRVEDASRVKEHMRVQMSIQEVEVRGDKFDATATAEYVVNGRPQQITYKFSFHAHNGKIKNLDVRLDEDQQRKLEK”, the protease stability score came out at 0.184.
In the case of “DEEALKQAEEILTQRQTGNPQEVMKNMDKNVKFDYGDKTIHGKENLEKDVEKERTEMRYEIKSVEFRARGNKVVADFRATFNVNGHPFSVRVVFIAHFEDGKIKKATENVSEEQRKKMKS” it was 0.084; in that of “DDNLRKHVDNLIKLLQDGNPQELVNMADPNARVTIGDEQVHGREQLHEDWHRQAKEMRIQWDHYRVDAQGDKVRVNATRTLQTNGKPDSERFHVEMRLQGDKLQTERVDVHK”, -0.265; in that of “DEENQRLAEEFIRAFEKGNPDQAATMADPNVKIDIGEKRIHGHEELKKWIEELQRQMRVEVEHYEVEADGDKVIARLIFRQEHNGKPQEDKEQVNIRFHNGRAKSVTIRSTK”, 0.028.
In the case of “DEELQSDVEEFLRNQTTGDEDRLKELADENAKVHVGDKTLHGMDQIKRYERQEREEMRIDYKHWDIKVSGNQVTVHFDFVNRFNGKPQHVSVILHVQFDNGKIKAADYRTDPREREKIRS” it was -0.463; in that of “DEEIVKLVEEQARAEKTNDDKRLNELFDKDAKVDVGDKSYHGTEELHKLVHRTMHRMRFDLRTYRIDHEGDRAVMNYNLVFDINGRPDHYHVIFRAHMHNGRIKHQSVSVDPEQKKRFDS”, -0.023; in that of “DEDKNKKFADKVVRALEQNNEEEMNELFPPDARVEVGDKQIHGREEIQKYMQKIRDQVDHVEVKSMEVDGDKITVHVTVHHNGTSRTVVFIFHVRNGRLTEMKVKTG”, 0.04.
In the case of “DHEALKVLHKFMEALNTGDPDQLNKNIDPNARFVVGDKTINGREQFREDQRRLKEQIRVYATIRTIRVEGDHANLTVEYEQDHNGKPDSNEVTVTAKLKNGKIQEVREDRKQ” it was -0.18; in that of “DEEFEQNAKEWLTAIKENDPDQVRDLVDEDVRFNVGNKKVHGRERWKHLVETENKELRVEYESIDVKVNGDKAEFNATVTVEVNGKPAHFHVNMKMQAHNGRIKHVSQNMSHEDQEKFRK”, -0.118; in that of “DEEHARELVENFKRNNWQEFEKMADKDVRAHVGDWNVHGRETFSRMMKHLVDQIDHISVDSVDVDEDTVEIHFSFDINGQDVTAVLRVELHNGKIKSMELDARDENARDVLRKVWR”, 0.099.
Sequence “DHEDRELAKEWEKALHSGDRDQVHELMDPNASVRIGDKVFTGREEVSKHLKKIKDEMRIHIHSVHLEVQNGEVDNKNDLVADVNGVPVRVTVVVRITAQNGKMKELDMRFDPRQKEQMDR” yielded a protease stability score of 0.093.
In the case of “DDRDAKHFKEIMKHGNFEEMVRQADPNVTITIGDREVHGRHQAQKFVDTLNDRIDHYQVDEIDVKGEKITAEVAMVVNGVRVDFVIVMHFENGRIKSVRIEATNEHAHENFRRIHS” it was 0.561; in that of “EEDLLRKLSKILHQQDTGNEETVEKNADPNARFEVGDHKIHGMDQAAREIASKIREIRQEKRIESVSVHGNKMQIHFTFTQEKNGQPQTRRATMVVVMSNGKIKSMKVQYDK”, 0.697.
Regarding “DEKDVRILEEYVNAWNTNDPDTLNNLADPNARFKIGNKEFQGRDTLDRLAKQLRKEMRVTVHDVHAKDDDGRVDAKVDAVMHYNGKPNRDTFHFDAKVHNGRIRELNVQFDEKRKKKVDS”, the protease stability score was -0.065.
The figure for “DKEEVHKLKHLLRHGDFEKINKKADKDARMQIGDRVYHGREKMKKALEILQREVDDIRVDSIKVSGDRVSAEMHMEVNGRRYVFVVVIRATNGRVVSLKVKARSESQDEHLKNLVE” is 0.625; for “DDSQVRSALEQAKTGNFQNLRNQLDPNAHVRVGDKTLNGKEEAVSYMQEFRDQVDRIRVDSVTTQGEKAVADLTVVINGHRVRFELVVNIRNGRAREVELRSTSEEIKKHLEHLDS” it is 0.481.
In the case of “DDRNNHRAKTFLTALNHNDPDQMERMVDENAQVQVGDKSYRGREDMKRWLKELIDSIRLEVHVHSLTQHNGVAVADIEETRESNGDPEEDSFTLYIQVHNGQAKRLEESKKS”, the protease stability score stood at 0.552.
“DEKMLQHMEDALRRNDEQRLVELVDEDVKIKIGDRDVHGSERAQKIAETRKERIDSQDFKSMDLSGNKVTVDRVVVVNGVKFRVVVIYELSNGRIKRIEVRVTDEENKRRLQKQLS” had a protease stability score of 0.63.
As to “DKDAARRFNEMLQQIHTGNEQEVSKLVDEDADVKVGEKDVHGREQIHSEVKKMRDELSYRVQVNEFDDRGDKIRFNIRVRKNTNGKPKTSRNNLTVVVHNGRIKEVKAESDG”, the protease stability score is 0.095.
“DEEEVRKVLERLQKAVEKGNADEIAKLLKDDGEFVLIDERYKGQEDAKQVIKELQDKGFEFHTEEIQVKGGTAEVKTVWRVGDRELHLKVRYVVRGDKVDQVHAQWSKDAKEDLKKG” came in with a protease stability score of 0.691.
“EEERDKFAKILLHAILTGNEEQFKRLADPNATFNIGDRKIHGMERYTKQMKQEVDRIKIKVESVKISVSGNKITIDMVATFNVNGQPVTIRFVLDVTIKNGRVSELVLRVSDEQLQKMRR” showed a protease stability score of 0.308.
The figure for “DDQDLAKRLLDQLTKALQHGDERQLQRLMDKDVRVHIGDKNIHGREQAATFWVHLRKHVDRLSVRVKHVDIQGERVVFDMVFVFNHNGRQEHVRVVIVAKKDGDKIRIKRASQN” is 2.16; for “DETQRAEEFFKRMQKLAHTNNFEHLANMADPNANFRVGDKTFHGRRDMIRQQKQIRERVDHVEYDVRRIDVHGNELDIKLEVNYDVNGKKDTRTVHYNAENNNGDVVISRVEYK” it is 0.127.
In the case of “DEEDQKVFERILEIFKTGDEEEAQKNMDKDVRVQYGDKQLHGRENIARELQTKMNELRYKFSIESVENHNGQVRVNFQFVENHNGRPSRKKAKLVVHFRNGKLRNFEQQDVS” it was 0.534; in that of “DEEDVKTLMNLMRNNNFEDLQRMADPNAKVIVGDQTYQGQKEVRTFLHKLKDQIDHLDIKSLDYHNGRVVLDVEATVNGQRFRYVLTVDVHNGHVKSVRFQARSEKDERILKEQAS”, 1.11.
